From the supplement of paper PMC9732359
± gives the uncertainty stated by the source.

Assay: protein stability index of a GFP-peptide fusion (yeast GPS) (PSI 1-4); higher = more stable; sorted into four equal gates, so the index is relative within each strain
Procedure, shortened: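 Plasmids in a pooled yeast library fused tiled 17-residue yeast protein peptides downstream of GFP and also expressed Cherry. Mid-log cultures grown without leucine were sorted into four equal gates by GFP/Cherry fluorescence ratio. Each gate's plasmids were PCR-amplified and Illumina-sequenced, and reads were matched to strains by barcodes. The protein stability index is derived by multiplying each gate's read frequency by its gate number and summing the results.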

Sequence | protein stability index (doa10∆) | protein stability index (pdr5∆) | protein stability index (san1∆) | protein stability index (ubr1∆)
VQKSTKTFSYKRPSTFY [RPL20A] | 2.73 ± 0.15 | 3.34 ± 0.084 | 3.06 ± 0.085 | 2.23 ± 0.065
VQLRYGDYDSHDISRYV [PRP8] | 2.41 ± 0.062 | 2.46 ± 0.064 | 2.69 ± 0.075 | 2.09 ± 0.044
VQLSPSNPQHIIQPFLD [RGR1] | 2.73 ± 0.051 | 2.85 ± 0.062 | 2.51 ± 0.063 | 2.82 ± 0.032
VQNSTLAQLTSKLIPEV [RPS1B] | 2.19 ± 0.084 | 2.73 ± 0.062 | 2.27 ± 0.12 | 2.55 ± 0.047
VQPTIGQLPQLPKLNLP [SNF5] | 3.05 ± 0.044 | 2.75 ± 0.046 | 2.49 ± 0.057 | 3.08 ± 0.043
VQQRYTQSGGVRPFGVS [PRE6] | 2.8 ± 0.22 | – | – | –
VQQSEKLRNEVERIQKM [YIL149C/MLP2] | 3.13 ± 0.13 | 3.42 ± 0.2 | 2.86 ± 0.2 | 3.24 ± 0.12
VQRQIEQQKGQQTAQTQ [SNF5] | 3.41 ± 0.08 | 3.3 ± 0.078 | 3.3 ± 0.061 | 3.07 ± 0.055
VRCVNCSKSIPKDKAIK [RPS26A] | 2.77 ± 0.067 | 3 ± 0.071 | 2.77 ± 0.063 | 2.82 ± 0.044
VRDVAAQDFINAYASFL [RPS19A] | 2.85 ± 0.078 | 2.5 ± 0.092 | 2.96 ± 0.22 | 2.21 ± 0.088
VRFIGDSVAAIGIPVNK [QCR2] | 2.83 ± 0.13 | 2.52 ± 0.16 | 2.4 ± 0.14 | 3.02 ± 0.2
VRKETYSSYIYKVLKQT [HTB2] | 3.08 ± 0.074 | 3.26 ± 0.065 | 3.24 ± 0.051 | 3.12 ± 0.038
VRMRLAQLTHSLRRIRD [MED8] | 1.45 ± 0.041 | 2.04 ± 0.063 | 1.49 ± 0.087 | 1.91 ± 0.049
VRNSFPLDEIPVDVDFN [REC8] | 2.71 ± 0.12 | 2.33 ± 0.096 | 2.57 ± 0.078 | 2.99 ± 0.065
VRQKIKTLKRMIKESST [POP1] | 1.47 ± 0.039 | 1.68 ± 0.052 | 1.45 ± 0.081 | 1.93 ± 0.044
VRVQFQFTGFLLHEMTQ [GRR1] | 1.83 ± 0.067 | 2.08 ± 0.061 | 1.91 ± 0.074 | 1.85 ± 0.053
VSAAEDESLIRELYKYV [PRP28] | 3.27 ± 0.11 | 3.27 ± 0.13 | 2.95 ± 0.084 | 2.94 ± 0.098
VSFDFNGVPGQALDAVR [MED8] | 3.1 ± 0.077 | 3.36 ± 0.079 | 3.32 ± 0.079 | 3.36 ± 0.061
VSIKFTNAAFPFHDPEA [ECM29] | 2.3 ± 0.053 | 2.11 ± 0.053 | 1.91 ± 0.068 | 1.83 ± 0.047
VSKKELYAIKKVTLNKE [BRR2] | 1.73 ± 0.072 | 2.01 ± 0.11 | – | 1.6 ± 0.085
VSLIKKYKLISRIVEIF [YML103C/NUP188] | 1.34 ± 0.054 | 1.94 ± 0.049 | 1.64 ± 0.067 | 1.46 ± 0.054
VSLVAEATSNTNSEDKL [MED4] | 2.84 ± 0.12 | 3.03 ± 0.078 | 2.84 ± 0.082 | 2.65 ± 0.1
VSLVVNFQISKKMDDYI [PRP28] | 2.39 ± 0.066 | 2.05 ± 0.07 | 2.38 ± 0.1 | 2.03 ± 0.05
VSMITDHNALPQRCTFA [POP1] | 2.97 ± 0.18 | 3.01 ± 0.11 | 2.3 ± 0.18 | 2.73 ± 0.13
VSNLMGRNIGHPIIQDK [RPB3] | 3.42 ± 0.079 | 3.43 ± 0.072 | 3.17 ± 0.053 | 3.22 ± 0.084

Sequence | protein stability index (doa10∆) | protein stability index (pdr5∆) | protein stability index (san1∆) | protein stability index (ubr1∆)
VSNPGDNPPPADNGEEY [MED2] | 3.14 ± 0.071 | 2.86 ± 0.1 | 3.13 ± 0.074 | 3.29 ± 0.11
VSSESSDEAIIPVNKRR [SIR3] | 3.31 ± 0.15 | 2.98 ± 0.12 | 3.02 ± 0.1 | 3.22 ± 0.082
VSTKTNEYRLAFYQVTP [RPL22A] | 1.86 ± 0.038 | 2.19 ± 0.04 | 2.6 ± 0.056 | 2.48 ± 0.048
VSTRAIDLLWKGKTPKN [PRP28] | – | 1.48 ± 0.12 | 1.18 ± 0.12 | 1.16 ± 0.14
VSVRKHLERNRKDKDAK [RPS13] | 3.38 ± 0.16 | 3.31 ± 0.095 | – | 3.28 ± 0.099
VTEDGTVVTVVSTAKFS [RPL22A] | 2.52 ± 0.13 | 2.81 ± 0.14 | 2.2 ± 0.12 | 2.59 ± 0.061
VTFSVMPPKKSWRNITN [SMC4] | 2 ± 0.11 | 2.45 ± 0.15 | 2.23 ± 0.19 | 2.82 ± 0.14
VTKILPHLIIQNHNSKS [IRR1] | 1.41 ± 0.11 | 1.19 ± 0.072 | 1.16 ± 0.13 | 1.15 ± 0.073
VTLDFGNIFADLLPNSF [SMC2] | 2.8 ± 0.1 | 2.86 ± 0.067 | 3.07 ± 0.07 | 2.91 ± 0.064
VTLLANVRALYMRLWEI [RMP1] | 1.57 ± 0.21 | – | – | –
VTLVNGKRRMNPGPSVQ [RPS30A] | 2.69 ± 0.049 | 2.94 ± 0.031 | 2.81 ± 0.047 | 2.87 ± 0.033
VTPIIDGIVVKNAVVRS [ARP7] | 1.51 ± 0.074 | 1.92 ± 0.082 | 1.61 ± 0.13 | 1.74 ± 0.16
VTPTKTEVIIRATRTQD [RPS3] | 1.86 ± 0.049 | 1.91 ± 0.044 | 2.57 ± 0.069 | 1.91 ± 0.033
VTQNVLGLEYIIRLLPI [SRB8] | 1.55 ± 0.12 | 1.68 ± 0.14 | 1.39 ± 0.25 | 1.63 ± 0.21
VTYSDVGGCKDQIEKLR [RPT1] | 3.51 ± 0.16 | 3.67 ± 0.2 | 2.92 ± 0.25 | 3.39 ± 0.12
VVAAAEDDDNEQHEEKA [QCR6] | 2.87 ± 0.12 | 2.98 ± 0.15 | – | 3.07 ± 0.16
VVDFTSLPEELKKRYDL [YMR129W/POM152] | 2.14 ± 0.21 | 2.33 ± 0.15 | 2.96 ± 0.088 | 2.62 ± 0.12
VVDTEETATLIMNELYR [SMC3] | 3.02 ± 0.086 | 3.17 ± 0.11 | 2.79 ± 0.1 | 3.03 ± 0.096
VVETITSLLNKVLKSGS [RRP42] | 2.67 ± 0.11 | 2.37 ± 0.067 | 2.54 ± 0.085 | 2.45 ± 0.051
VVFAVEKLITSKLLVPQ [PRE10] | 2.03 ± 0.14 | 2.81 ± 0.18 | 2.33 ± 0.13 | 2.66 ± 0.05
VVFDSNEAPPKTSLADW [YMR153W/NUP53] | 3.19 ± 0.06 | 3.28 ± 0.051 | 3.06 ± 0.073 | 3.33 ± 0.096
VVIAADTRSTQGPIVAD [PUP1] | 2.65 ± 0.1 | 3.29 ± 0.24 | 2.68 ± 0.19 | 3 ± 0.072
VVKGLPDISRAVINIRD [RPO31] | 2.83 ± 0.083 | 2.23 ± 0.097 | 2.6 ± 0.23 | 2.47 ± 0.083
VVNQPTGKIVDVVGTLS [FAS1] | 3.1 ± 0.12 | 3.49 ± 0.12 | 3.49 ± 0.092 | 3.11 ± 0.061
